assay: yeast display, Sf9 membrane polyspecificity reagent, FACS + sequencing; frameworks hold sequencing errors
How it was run: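 A synthetic nanobody library was expressed on Saccharomyces cerevisiae BJ5465 by galactose induction for 36–48 hours. The library was stained for 1 hour at 4 °C with 10% biotinylated, detergent-solubilized Sf9 membrane reagent and enriched with streptavidin microbeads before FACS. Low and high (top ~1%) gates were set on anti-HA fluorescence for expression and streptavidin fluorescence for reagent binding, and each polyreactivity label reflects the gate of origin.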

| Sequence | polyreactivity (PSR sort gate) |
| --- | --- |
| QVQLVESGGGLVQAGGSLRLICAASGRIFKVYAMGWYRQAPGKERELVAVITGGGSTNYADSVKGRFTISRDNAKNTVDLQMNSLKPEDTAVYYCATEGYGHGGETDGGVYSELGSWGQGTQVTVSS | low polyreactivity |
| QVQLVESGGGLVQAGGSLRLICAASGRIFLGYAMGWYRKAPGKERELVAAITSSSGITYYADSVKGRFTISRDNAKNSVYLQMNSLKPEDTAVYYCAARASSGRRTKRYNYWGQGTKVTVSS | low polyreactivity |
| QVQLVESGGGLVQAGGSLRLICAASGRIFNSYAMGWFRQAPGKEMELVAAISRNGGITYYADSVKGRFTISRDNAKNTVYFQMNSLKPEDTAVYYCNADSSRRRYSSDYWGQGTQVTVSS | high polyreactivity |
| QVQLVESGGGLVQAGGSLRLICAASGRIFPFYAMGWYRPEPGKERELVASISWSGGSTYYADSVKGRFTISRDNAKNPVYLQMNSLKPEDTAVFFCAARRWIADPGRIMDYWGQGTQVTVSS | high polyreactivity |
| QVQLVESGGGLVQAGGSLRLICAASGRIFRGNVMGWYRQAPGKERELDAAISSGGRTYYADSVKGRFTISRDNAKNTVYLQMNSLKPEDSAVYYCAKAFREGEGKFDYWGQGTQVTVSS | high polyreactivity |
| QVQLVESGGGLVQAGGSLRLICAASGRIFRRYAMGWYRQAPGKERELVASISLSGGSTYYADSVKGRFTISRDNAKNTVYLQMNSLKPEDTAVYYCAAVRPGVSNYGHWGQGTQLTVSS | high polyreactivity |
| QVQLVESGGGLVQAGGSLRLICAASGRIFRVYAMGWYRQSPGKERELVAAISSRGGRTYYADSVKGRFTISRDNAKNTVYLQMKSMIPEDTAVYYCAADGRSSSRTTYRYDYWGQGTQVTVSS | high polyreactivity |
| QVQLVESGGGLVQAGGSLRLICAASGRIFSRNAMGWYRQAPGKERELVAGISARGGRTYYADSVKGRFTISRDNAKNTVYLQMNSLKPEDTAVYYCNARTGYQDGTYGNDYWGQGTQVTVSS | high polyreactivity |
| QVQLVESGGGLVQAGGSLRLICAASGRIFTYNGMGWYRQAPGKERELVAAISSGGSTYADSVKGRFTISRDNAKNTVYLQMNSLKPEDTAVYYCAAVKGYQGSSYQRVDWEGDYWGQGTQVSVSS | low polyreactivity |
| QVQLVESGGGLVQAGGSLRLICAASGRIFVRNARGLYRQAPGTERELVASISQNGGRTYYADSVKGRFTISRDNAKNTVYLQMNSLKPEDTAVYYCARGRGGSRPGLDYWGQGTQVTVSS | high polyreactivity |
| QVQLVESGGGLVQAGGSLRLICAASGRIFYAYAMGWYRQAPGKERELVATITYGGGSTYYADSVKGRFTISRDNAKNTVYLQMNSLKPEDTAVYYCAAVRTGSTLYTIRYYYWGQGTQVTVSS | low polyreactivity |
| QVQLVESGGGLVQAGGSLRLICAASGRIFYPYAMGWYRPAPGKERELVATITRTGSTYYADSVKGRFTISRDNAKNTVYLHMNSLKPEDTAVYYCAVQRSYVGPRQYNYWGQGTQVTVSS | high polyreactivity |
| QVQLVESGGGLVQAGGSLRLICAASGRIFYRYAMGWYRQAPGKERELVAAITWRGGSTYYADSVKGRFTISRDNAKNTVYLQMNSLKPEDTAVYYCAAAAYGVPWRSYLGVFKSHMDYWGQGTQVTVSS | high polyreactivity |
| QVQLVESGGGLVQAGGSLRLICAASGRILYTYAMGWYRQAPGKERELVAGISRGGRTYYADSVKGRFTISRDNAKNTVYLQMNSLKPEDTAVYYCAARLQYGIQYRYDYWGQGTLVTVSS | high polyreactivity |
| QVQLVESGGGLVQAGGSLRLICAASGRNFNHYAMGWYRQAPGKERELVAGITISCGSTYYADSVKGRFTISRDNSKNTVSLQINSLKPEVTAVYYCNAVYDYYRQSKWSMDYWGQGTQVTVSS | low polyreactivity |
| QVQLVESGGGLVQAGGSLRLICAASGRSFDYYAMGWYRQAPGKERDLVAAITSGGTTTYYADSVKGRFTISRDNAKNTVYVQMNSLKPEDYAVYYCAKYPYHIYHTDGDYWGQGTQVTVSS | low polyreactivity |

| Sequence | polyreactivity (PSR sort gate) |
| --- | --- |
| QVQLVESGGGLVQAGGSLRLICAASGRTFALYAMGWYRQAPGKEREVVASISWRGGSTYYADSVKGRFTISRDTAKNTVYLQMNSLKPEDTAVDYCAADTWSYGPLNYRLEYWGQGTQVTVSS | low polyreactivity |
| QVQLVESGGGLVQAGGSLRLICAASGRTFFRYGMGWYRQAPGKEREFVAAITRSGTTTYYADSVKGRFTISRDNAKNTVYLQMNSLKPEDTAVYYCDAQRAAPVDGKSDYWGQGTQVTLSS | low polyreactivity |
| QVQLVESGGGLVQAGGSLRLICAASGRTFGIYAMGWYSPAPGKERELVATISWRGGSTYYADSVKGRFTISRDNAKNSVYLQMNSLKPEDTGVYYCAAGYYPYWGQGTQVTVSS | low polyreactivity |
| QVQLVESGGGLVQAGGSLRLICAASGRTFGVNAMGWYRQAPGKERELVASIRWNGGSTYYADSVKGRFTISRDNAKNTVYLQMNSLKPEDTAVYYCNAVRRYRSREFDYWGQGTQVTVSS | low polyreactivity |
| QVQLVESGGGLVQAGGSLRLICAASGRTFINYAMGWSRQAPGKERELVAAITTGGRTNYADSVKGRFTISRDNAKNTVYLQMKSLKPEDTAVYYCAADRYYWGRYTLNYWGQGTQVTVSS | low polyreactivity |
| QVQLVESGGGLVQAGGSLRLICAASGRTFKQYAMGWSRQAPGTERELVAAITSSGGSTYYADSVKGRFTISRDNAKNTVYLQMNSLKPEDTAVYYCAAATRGSGRRYDYWGQGTQVTVSS | high polyreactivity |
| QVQLVESGGGLVQAGGSLRLICAASGRTFVYYAMGWYRQAPGKERELVAAISGGGSKTYADSVKGRFTISRDNAKYTVYLLMNSLKPEDTAVYYCGKSVWRRYYYWGQGNQVTVSS | high polyreactivity |
| QVQLVESGGGLVQAGGSLRLICAASGRTFYIYTMGWYREAPGKERELVAAISSSGDSTYYADSLKGRFTISRDNAKNTVYLQMNSLKPEDTAVYYCAAYPTYPDEYWGEGTQVTVSS | low polyreactivity |
| QVQLVESGGGLVQAGGSLRLICAASGRTFYKYAMGWYRQAPGKEREFVADISSRGGSTYYADSVKGRFTISRDNAKNTVYLQMNSLKPEDTSVYYCAAFSDLTFWHHFSELYYWGQGTQVTVSS | high polyreactivity |
| QVQLVESGGGLVQAGGSLRLICAASGRTSGGNGMGWYRQAPGKERELVAAITWDGDSTYADSVKGRFTISRDNAKNTDYFQMNSLKPEDTAVYYCAAGVYQSDYYYWGQGTQVTVSS | low polyreactivity |
| QVQLVESGGGLVQAGGSLRLICAASGRTYHGYAMGWYRQAPGKERELVAAITSSGARTYYADSVKGRFTLSRDNAKKTVYLQMNSLKPEDTAVYYCAVNWLRGMDWGQGTQVTVSS | high polyreactivity |
| QVQLVESGGGLVQAGGSLRLICAASGSIFASYVMGWYRQAPGKERDLVAAITSRGTSTYYADSVKGRFTISRDNAKNTVYFQINSLKTEDTAVYYCAARLYGSAPQHEYWGKGTQVTVSS | low polyreactivity |
| QVQLVESGGGLVQAGGSLRLICAASGSIFDRYAMGWYRPAPGKDRELVAAITGSGGSTYYADSVKGRFRISRDNAKNTVYLQMNSLKPEDTAVYYGNARARGAYVRYGYWGQGTQVTVSS | high polyreactivity |
| QVQLVESGGGLVQAGGSLRLICAASGSIFDRYVMGWYRQAPGKERELVAAITTSGDGTYYADSVKGRFTISRDNAKNTVYLQMNSLKPEDTAVYYCAAVRRSWKYSTSDYWGQGTQVTVSS | low polyreactivity |
| QVQLVESGGGLVQAGGSLRLICAASGSIFDTYAMGWYRQAPGKERELLATISWSGDSTYYADSVKGRFTISRDNAKNTVYLQMNCLKPEDTAVYYCAADVGQVSDHEDYDYWGQGTQVTVSS | low polyreactivity |
| QVQLVESGGGLVQAGGSLRLICAASGSIFFYYAMGWYRQAPGKERELVAAITKIGVGTFYADSVKGRFTISRDNAKNTVYLQMNSLKPEDTAVYYCNARTAWEGYDYWGQGTQVTVSS | low polyreactivity |
